Values belong to the molecule of their own block, whether it stands above or below them.
Experiments:
[1] = target: mouse IL-2 receptor βƔc heterodimer (mouse)
[2] = target: human IL-2 receptor βƔc heterodimer (human) (UniProt P14784)
[3] = target: IL-2Rβγc (species not stated, Figure E3d) (not stated (human and mouse receptors made)) (UniProt P14784); assay: BLI
[4] = target: human IL-2Rβ, biotinylated (human) (UniProt P14784); assay: SPR
[5] = target: mouse IL-2Rβ ectodomain, biotinylated (mouse); assay: SPR
[6] = target: human IL-2 receptor βƔc heterodimer (human) (UniProt P14784); assay: SPR
[7] = target: mouse IL-2 receptor βƔc heterodimer (mouse); assay: SPR

EC50 of STAT5 phosphorylation in IL-2Rα- mouse primary T cells [1]: 0.13 nM | EC50 of STAT5 phosphorylation in IL-2Rα- (CD25-) human YT-1 NK cells [2]: 0.05 nM | Kd [3]: 6.9 nM | Kd [4]: 11.2 nM | Kd [5]: 16.1 nM | Kd [6]: 18.8 nM | Kd [7]: 38.4 nM
Molecule: Neoleukin-2/15 (designed binder)

Kd [5]: 214 nM | Kd [6]: 301 nM | Kd [7]: 312 nM
Molecule: Super-2 / Superkine (from UniProt P60568 21-153) (ligand)

Kd [5]: 8110 nM | Kd [7]: 492 nM
Molecule: human interleukin-2 (from UniProt P60568 21-153) (ligand)

Kd [5]: 1500 nM
B1: mouse interleukin-2 (ligand)
chain: APTSSSTSSSTAEAQQQQQQQQQQQQHLEQLLMDLQELLSRMENYRNLKLPRMLTFKFYLPKQATELKDLQCLEDELGPLRHVLDLTQSKSFQLEDAENFISNIRVTVVKLKGSDNTFECQFDDESATVVDFLRRWIAFCQSIISTSPQ
